Several values for one entry are separate records, joined by “and”; a condition that tells them apart may be missing. Equal entries are not always repeated. Structures can show the parent of a compound that is named as a salt. Where two headings read alike, the source gives them in different places. A value given as a limit tells only on which side of the number the result lay.

As a reminder, the CL/F is the apparent clearance, not corrected for the fraction that reaches the circulation. As usually defined, the Cmax is the highest concentration seen after dosing. By Vd/F is commonly meant the volume of distribution divided by bioavailability. As usually defined, the AUC(0-t) is the area under the concentration-time curve up to a stated or last time point. Broadly, the Tmax is the time at which the peak concentration occurs.

Data set [1] concerns skin at injection site. As to conditions: for tolerability after SC injection: primates, single SC injection 1.5 mg/kg.
The conditions of data set [2]: female, cynomolgus monkey, in vivo, sc, 1.5 mg/kg.
Data set [3] can be described thus: in vivo. As to conditions: female, cynomolgus monkey, sc, 1.5 mg/kg.
The test system of data set [4] is skin at injection site. As to conditions: for tolerability after SC injection: primates, SC injection 3.0 mg/kg (apomorphine equivalents), multiple doses; for skin at the site of injection 12 hours after the third dose (day 14): weekly SC injection 3.0 mg/kg (apomorphine equivalents).
Method: Non-naïve female cynomolgus monkeys were used in the study. […] They were assigned to three groups with 3 animals per group.
The test articles were dosed subcutaneously (as described in Table 6) in the right shoulder on days 0 and 14 and in the left shoulder on days 7 and 21, of each monkey. […] Photographs were taken to study the severity of the reactions and observations that were recorded.
To determine if the Apo-A, Apo-B, and Apo-G conjugates induced skin reactions at a concentration of 3.0 mg/kg (as compared to the 1.5 mg/kg dose described in Examples 18 and 20), all animals were/will be monitored daily for these skin reactions. Photographs were/will be taken to study the skin reactions and observations were/will be recorded. Bases on the presence of erythema and swelling, the skin reactions were/will be recorded as none, slight, well defined, moderate and severe.
For data set [5] the following is noted: single SC injection 1.5 mg/kg; for PR (percent of released apomorphine): AUC0-last(free) relative to AUC0-last(total); for PR (percent of released apomorphine) / AUC0-168 / AUC0-inf / AUC0-last / CL/F obs / Cmax / Tmax: mean; for time by which drug is cleared and BLQ / AUC0-168 / AUC0-inf / AUC0-last / CL/F obs / Cmax / Tmax: total apomorphine, plasma.
Data set [6] is described as follows: Pharmacokinetics of free apomorphine in plasma after single SC infusion/injection. The note with it: for dose dumping (burst effect): after single SC administration 1.5 mg/kg; for AUC0-168 / AUC0-inf / AUC0-last / Cmax / Tmax / time post-dose by which drug is completely cleared and below the limit of quantification (BLQ) / increase of Tmax as compared to apomorphine HCl / increase of t1/2z as compared to apomorphine HCl: free apomorphine, single SC 1.5 mg/kg; for AUC0-168 / AUC0-inf / AUC0-last / Cmax / Tmax / time post-dose by which drug is completely cleared and below the limit of quantification (BLQ): plasma; for AUC0-168 / AUC0-inf / AUC0-last / Cmax / Tmax: female monkeys, mean n=3; for period of sustained release of apomorphine: single SC injection 1.5 mg/kg, monkeys.

[7] abbreviates: single SC 1.5 mg/kg, per animal.

With `CN1CCc2cccc3c2[C@H]1Cc1ccc(O)c(O)c1-3` [apomorphine HCl, Apomorphine hydrochloride], the “Observations (skin reaction), Day 15” value in data set [1] (female, cynomolgus monkey, in vivo, sc, 1.5 mg/kg, 15 day) is “Day 15: Skin appears normal”. For the same compound, the “time post-dose by which drug is completely cleared and below the limit of quantification (BLQ)” value in data set [2] is at most 24 h. In data set [3], the AUC0-inf was 0.0902 µg·h/mL, the CL/F was 17.4 L/h/kg, the Cmax amounted to 0.0106 µg/mL and the Vd/F came out at 43.6 L/kg. In data set [3] (cynomolgus), the exposure AUC(0-t) was determined as 0.0898 µg·h/mL, the maximum concentration (Cmax) is about 0.0106 µg/mL and the Tmax was found to be 4 h.

As for “POZ10p20k[Apo(2-methylpropanoate)(4-triazolebutanoate)]10 [POZ-Apomorphine B]”, in data set [1], the “tolerability after SC injection” value is recorded as “well tolerated”. Besides, in data set [1] (setting [7]), the “Observations (skin reaction), Day 1 to Day 15” value was “Day 1 to Day 15: No erythema and swelling”; the “Observations (skin reaction), Day 15” value is recorded as “Day 15: Skin appears normal”. In data set [4], the “tolerability after SC injection” value is reported as “well tolerated”; the “skin at the site of injection 12 hours after the third dose (day 14)” value is “appeared normal with no sign of erythema and swelling”. For the same compound, in data set [5], the “PR (percent of released apomorphine)” value was determined as 5.5%; the “time by which drug is cleared and BLQ” value is over 240 h; the AUC0-168 was found to be 8.317 µg·h/mL; the AUC0-inf is 16.456 µg·h/mL. In data set [5], the AUC0-last is 11.61 µg·h/mL and the CL/F obs turned out to be 0.091 L/h/kg. In data set [5] (1.5 mg/kg), the maximum concentration (Cmax) was 0.0726 µg/mL and 0.0727 µg/mL; the time of peak concentration (Tmax) was determined as 136.0 h. Moreover, in data set [6], the “dose dumping (burst effect)” value is “no evidence of dose dumping”, the AUC0-168 is 0.478 µg·h/mL, the AUC0-inf was 0.968 µg·h/mL and the AUC0-last turned out to be 0.64 µg·h/mL. In addition, in data set [6], the Cmax was 0.0035 µg/mL; the Tmax was 104 h; the “time post-dose by which drug is completely cleared and below the limit of quantification (BLQ)” value is listed as over 240 h; the “increase of Tmax as compared to apomorphine HCl” value stood at 26 times. Further, in data set [6], the “increase of t1/2z as compared to apomorphine HCl” value was 84.3 times and the “period of sustained release of apomorphine” value is 10 days.

Regarding “POZ10p20k[Apo(4-butanoate)(4-triazolebutanoate)]10 [POZ-Apomorphine A]”, the “tolerability after SC injection” value in data set [1] was “well tolerated”. Moreover, in data set [1] (setting [7]), the “Observations (skin reaction), Day 1 to Day 15” value was “Day 1 to Day 15: No erythema and swelling”; the “Observations (skin reaction), Day 15” value is recorded as “Day 15: Skin appears normal”. In data set [4], the “tolerability after SC injection” value is “well tolerated”; the “skin at the site of injection 12 hours after the third dose (day 14)” value was “appeared normal with no sign of erythema and swelling”. In data set [5], the “PR (percent of released apomorphine)” value was 4.8%; the “time by which drug is cleared and BLQ” value was at most 240 h; the AUC0-168 turned out to be 13.368 µg·h/mL; the AUC0-inf was determined as 138.986 µg·h/mL. Moreover, in data set [5], the AUC0-last is 13.835 µg·h/mL, the CL/F obs turned out to be 0.109 L/h/kg, the Cmax was 0.1513 µg/mL and the time of peak concentration (Tmax) is 88 h. In addition, in data set [6], the “dose dumping (burst effect)” value is “no evidence of dose dumping”, the AUC0-168 came out at 0.647 µg·h/mL, the AUC0-inf was determined as 0.666 µg·h/mL and the AUC0-last came out at 0.656 µg·h/mL. Also, in data set [6], the highest concentration (Cmax) was 0.0066 µg/mL; the Tmax came out at 88 h; the “time post-dose by which drug is completely cleared and below the limit of quantification (BLQ)” value is given as at most 240 h; the “increase of Tmax as compared to apomorphine HCl” value is on record as 22 times. In addition, in data set [6], the “increase of t1/2z as compared to apomorphine HCl” value is 13.2 times and the “period of sustained release of apomorphine” value came out at 5 days.

(Values after patent US11766432B2, “Cleavable conjugates of catechol compounds and water-soluble polymers and methods of treatment using the same” (SERINA THERAPEUTICS, INC., priority 2018, dated 2023).)
